Source: patent US20200306373A1 (Hoffmann-La Roche, published 2020)

T1: murine ICOS (murine, UniProt Q9WVS0 21-200)
T1 construct: in the splenocyte assays the endogenous protein on murine T cells; also called mICOS
T1 sequence: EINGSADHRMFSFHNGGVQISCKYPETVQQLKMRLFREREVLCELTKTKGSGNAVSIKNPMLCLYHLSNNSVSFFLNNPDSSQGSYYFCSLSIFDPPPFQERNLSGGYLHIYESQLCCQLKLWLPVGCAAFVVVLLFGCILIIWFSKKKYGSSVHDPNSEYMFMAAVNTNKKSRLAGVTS

B1: FAP-targeted mICOSL, mIgG1 DAPG, bivalent murine ICOSL (Gly47-Lys279), monovalent FAP (28H1) c-terminal fused of the heavy chain C region (Fc fusion)
chain 1: ETEVGAMVGSNVVLSCIDPHRRHFNLSGLYVYWQIENPEVSVTYYLPYKSPGINVDSSYKNRGHLSLDSMKQGNFSLYLKNVTPQDTQEFTCRVFMNTATELVKILEEVVRLRVAANFSTPVISTSDSSNPGQERTYTCMSKNGYPEPNLYWINTTDNSLIDTALQNNTVYLNKLGLYDVISTLRLPWTSRGDVLCCVENVALHQNITSISQAESFTGNNTKNPQETHNNELKGSPGSSSSSGSADGCKPCICTVPEVSSVFIFPPKPKDVLTITLTPKVTCVVVAISKDDPEVQFSWFVDDVEVHTAQTKPREEQINSTFRSVSELPIMHQDWLNGKEFKCRVNSAAFGAPIEKTISKTKGRPKAPQVYTIPPPKKQMAKDKVSLTCMITNFFPEDITVEWQWNGQPAENYKNTQPIMKTDGSYFVYSKLNVQKSNWEAGNTFTCSVLHEGLHNHHTEKSLSHSPGGGGGSGGGGSGGGGSGGGGSEVQLLESGGGLVQPGGSLRLSCAASGFTFSSHAMSWVRQAPGKGLEWVSAIWASGEQYYADSVKGRFTISRDNSKNTLYLQMNSLRAEDTAVYYCAKGWLGNFDYWGQGTLVTVSS
chain 2: ETEVGAMVGSNVVLSCIDPHRRHFNLSGLYVYWQIENPEVSVTYYLPYKSPGINVDSSYKNRGHLSLDSMKQGNFSLYLKNVTPQDTQEFTCRVFMNTATELVKILEEVVRLRVAANFSTPVISTSDSSNPGQERTYTCMSKNGYPEPNLYWINTTDNSLIDTALQNNTVYLNKLGLYDVISTLRLPWTSRGDVLCCVENVALHQNITSISQAESFTGNNTKNPQETHNNELKGSPGSSSSSGSAGSPGSSSSSGSADGCKPCICTVPEVSSVFIFPPKPKDVLTITLTPKVTCVVVAISKDDPEVQFSWFVDDVEVHTAQTKPREEQINSTFRSVSELPIMHQDWLNGKEFKCRVNSAAFGAPIEKTISKTKGRPKAPQVYTIPPPKEQMAKDKVSLTCMITNFFPEDITVEWQWNGQPAENYDNTQPIMDTDGSYFVYSDLNVQKSNWEAGNTFTCSVLHEGLHNHHTEKSLSHSPGGGGGSGGGGSGGGGSGGGGSEIVLTQSPGTLSLSPGERATLSCRASQSVSRSYLAWYQQKPGQAPRLLIIGASTRATGIPDRFSGSGSGTDFTLTISRLEPEDFAVYYCQQGQVIPPTFGQGTKVEIK
notes: also called FAP-mICOS-L; FAP-mICOSL
B2: ICOS(16E09)-FAP(28H1) 1+1, FAP-targeted anti-murine ICOS_1+1, mIgG1 DAPG, monovalent murine ICOS (16E09), monovalent FAP (28H1) (bispecific antibody)
heavy 1: EVQLVQSGAEVKKPGESLKISCKGSGYSFTSYWIGWVRQMPGKGLEWMGIIYPGDSDTRYSPSFQGQVTISADKSISTAYLQWSSLKASDTAMYYCARSSGPYGLYLDYWGQGTLVTVSSAKTTPPSVYPLAPGSAAQTNSMVTLGCLVEGYFPEPVTVTWNSGSLSSGVHTFPAVLQSDLYTLSSSVTVPSSTWPSQTVTCNVAHPASSTKVDEKIVPRDCGCKPCICTVPEVSSVFIFPPKPKDVLTITLTPKVTCVVVAISKDDPEVQFSWFVDDVEVHTAQTKPREEQINSTFRSVSELPIMHQDWLNGKEFKCRVNSAAFGAPIEKTISKTKGRPKAPQVYTIPPPKEQMAKDKVSLTCMITNFFPEDITVEWQWNGQPAENYDNTQPIMDTDGSYFVYSDLNVQKSNWEAGNTFTCSVLHEGLHNHHTEKSLSHSP
heavy 2: EIVLTQSPGTLSLSPGERATLSCRASQSVSRSYLAWYQQKPGQAPRLLIIGASTRATGIPDRFSGSGSGTDFTLTISRLEPEDFAVYYCQQGQVIPPTFGQGTKVEIKSSAKTTPPSVYPLAPGSAAQTNSMVTLGCLVKGYFPEPVTVTWNSGSLSSGVHTFPAVLQSDLYTLSSSVTVPSSTWPSQTVTCNVAHPASSTKVDKKIVPRDCGCKPCICTVPEVSSVFIFPPKPKDVLTITLTPKVTCVVVAISKDDPEVQFSWFVDDVEVHTAQTKPREEQINSTFRSVSELPIMHQDWLNGKEFKCRVNSAAFGAPIEKTISKTKGRPKAPQVYTIPPPKKQMAKDKVSLTCMITNFFPEDITVEWQWNGQPAENYKNTQPIMKTDGSYFVYSKLNVQKSNWEAGNTFTCSVLHEGLHNHHTEKSLSHSP
light 1: not shown
light 2: EVQLLESGGGLVQPGGSLRLSCAASGFTFSSHAMSWVRQAPGKGLEWVSAIWASGEQYYADSVKGRFTISRDNSKNTLYLQMNSLRAEDTAVYYCAKGWLGNFDYWGQGTLVTVSSASDAAPTVSIFPPSSEQLTSGGASVVCFLNNFYPKDINVKWKIDGSERQNGVLNSWTDQDSKDSTYSMSSTLTLTKDEYERHNSYTCEATHKTSTSPIVKSFNRNEC
notes: Murine IgG1 DAPG DDKK; also called ICOS(16E09)-FAP(28H1) 1 + 1 muIgG1 DAPG
B3: Fab fragment 16E09 (Fab, V domains shown)
VH: EVQLVQSGAEVKKPGESLKISCKGSGYSFTSYWIGWVRQMPGKGLEWMGIIYPGDSDTRYSPSFQGQVTISADKSISTAYLQWSSLKASDTAMYYCARSSGPYGLYLDYWGQGTLVTVSS
VL: not shown
notes: Phage-derived Fab expressed in E. coli TG1 and purified on His GraviTrap columns; also called 16E09 anti-ICOS antibody as Fab fragment; purified Fab fragment 16E09
B4: ICOS(16E09)-FAP(28H1) 2+1, FAP-targeted anti-murine ICOS_2+1, mIgG1 DAPG, bivalent murine ICOS (16E09), monovalent FAP (28H1) (bispecific antibody)
heavy 1: EVQLVQSGAEVKKPGESLKISCKGSGYSFTSYWIGWVRQMPGKGLEWMGIIYPGDSDTRYSPSFQGQVTISADKSISTAYLQWSSLKASDTAMYYCARSSGPYGLYLDYWGQGTLVTVSSAKTTPPSVYPLAPGSAAQTNSMVTLGCLVKGYFPEPVTVTWNSGSLSSGVHTFPAVLQSDLYTLSSSVTVPSSTWPSQTVTCNVAHPASSTKVDKKIVPRDCGCKPCICTVPEVSSVFIFPPKPKDVLTITLTPKVTCVVVAISKDDPEVQFSWFVDDVEVHTAQTKPREEQINSTFRSVSELPIMHQDWLNGKEFKCRVNSAAFGAPIEKTISKTKGRPKAPQVYTIPPPKEQMAKDKVSLTCMITNFFPEDITVEWQWNGQPAENYDNTQPIMDTDGSYFVYSDLNVQKSNWEAGNTFTCSVLHEGLHNHHTEKSLSHSPGGGGGSGGGGSGGGGSGGGGSEIVLTQSPGTLSLSPGERATLSCRASQSVSRSYLAWYQQKPGQAPRLLIIGASTRATGIPDRFSGSGSGTDFTLTISRLEPEDFAVYYCQQGQVIPPTFGQGTKVEIK
heavy 2: EVQLVQSGAEVKKPGESLKISCKGSGYSFTSYWIGWVRQMPGKGLEWMGIIYPGDSDTRYSPSFQGQVTISADKSISTAYLQWSSLKASDTAMYYCARSSGPYGLYLDYWGQGTLVTVSSAKTTPPSVYPLAPGSAAQTNSMVTLGCLVKGYFPEPVTVTWNSGSLSSGVHTFPAVLQSDLYTLSSSVTVPSSTWPSQTVTCNVAHPASSTKVDKKIVPRDCGCKPCICTVPEVSSVFIFPPKPKDVLTITLTPKVTCVVVAISKDDPEVQFSWFVDDVEVHTAQTKPREEQINSTFRSVSELPIMHQDWLNGKEFKCRVNSAAFGAPIEKTISKTKGRPKAPQVYTIPPPKKQMAKDKVSLTCMITNFFPEDITVEWQWNGQPAENYKNTQPIMKTDGSYFVYSKLNVQKSNWEAGNTFTCSVLHEGLHNHHTEKSLSHSPGGGGGSGGGGSGGGGSGGGGSEVQLLESGGGLVQPGGSLRLSCAASGFTFSSHAMSWVRQAPGKGLEWVSAIWASGEQYYADSVKGRFTISRDNSKNTLYLQMNSLRAEDTAVYYCAKGWLGNFDYWGQGTLVTVSS
light: not shown
notes: Murine IgG1 DAPG DDKK; also called ICOS(16E09)-FAP(28H1) 2 + 1 muIgG1 DAPG

Legend:
murine FAP (mFAP) [1] = molecular target: T2, murine FAP (mFAP) (murine, UniProt P97321 1-761); experiment: flow cytometry on 3T3-mFAP cells stably overexpressing murine FAP, median fluorescence intensity
T2 construct: Expressed on 3T3-mFAP / NIH/3T3-moFAP cl.34 cells; also called mouse FAP; moFAP
T2 sequence (P97321 whole entry): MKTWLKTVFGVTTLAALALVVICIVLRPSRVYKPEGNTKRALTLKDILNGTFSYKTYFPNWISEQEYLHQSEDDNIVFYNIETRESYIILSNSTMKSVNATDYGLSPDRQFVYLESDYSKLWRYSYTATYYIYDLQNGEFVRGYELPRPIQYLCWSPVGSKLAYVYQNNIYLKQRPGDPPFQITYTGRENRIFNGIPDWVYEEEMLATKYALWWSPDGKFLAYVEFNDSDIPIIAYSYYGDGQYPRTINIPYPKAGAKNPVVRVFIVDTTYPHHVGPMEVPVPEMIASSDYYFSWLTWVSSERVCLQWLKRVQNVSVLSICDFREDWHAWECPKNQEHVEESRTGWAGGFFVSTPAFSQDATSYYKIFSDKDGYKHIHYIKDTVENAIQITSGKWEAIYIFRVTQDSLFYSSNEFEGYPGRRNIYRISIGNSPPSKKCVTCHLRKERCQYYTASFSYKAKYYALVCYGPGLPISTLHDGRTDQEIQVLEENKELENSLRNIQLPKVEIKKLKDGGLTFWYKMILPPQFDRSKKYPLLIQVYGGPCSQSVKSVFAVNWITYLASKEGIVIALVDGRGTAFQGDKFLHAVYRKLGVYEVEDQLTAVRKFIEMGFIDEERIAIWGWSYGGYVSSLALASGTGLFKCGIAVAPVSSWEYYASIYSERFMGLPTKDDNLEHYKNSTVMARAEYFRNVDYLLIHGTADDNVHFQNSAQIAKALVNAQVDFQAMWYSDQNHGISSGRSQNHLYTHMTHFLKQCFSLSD
Protocol: (§1) The staining was fixed for 20 min at 4° C. in the dark, using 75 μl of 1% PFA in FACS buffer per well. Fluorescence was analyzed by FACS using a FACS Fortessa (Software FACS Diva). Binding curves were obtained using GraphPadPrism6 and are shown in FIGS. 6A-6C and 7A-7B, respectively.

murine FAP (mFAP) [2] = molecular target: T2, murine FAP (mFAP); experiment: flow cytometry on 3T3-mFAP cells
Protocol: as §1

murine ICOS [3] = molecular target: T1, murine ICOS; experiment: flow cytometry on CHO-K1 transfectants expressing murine ICOS
Protocol: as §1

murine ICOS [4] = molecular target: T1, murine ICOS; experiment: flow cytometry on CHO cells expressing murine ICOS
Protocol: (§2) Briefly, adherent MKN45, NIH/3T3-moFAP or CHO-mICOS cells were detached using trypsin (Gibco, 25300-054), washed and 0.1 million cells were transferred into a 96-round bottom well-plate. […] Thereafter, cells were washed twice with cold PBS 0.1% BSA and further incubated for further 30 min at 4° C. with a labeled secondary antibody (PE-conjugated, #715-116-150 from Jackson Immuno Research Lab, diluted 1 to 50 in FACS buffer). Cells were washed with FACS buffer and the staining was fixed for 20 min at 4° C. in the dark, using 75 μl of 1% PFA in FACS buffer per well. Cells were washed twice with FACS Buffer and re-suspended in FACS Buffer for analysis.
(§3) Fluorescence was analyzed by FACS using a FACS Fortessa (Software FACS Diva). Binding curves and EC₅₀ values were obtained using GraphPadPrism6.

murine FAP (mFAP) [5] = molecular target: T2, murine FAP (mFAP); experiment: flow cytometry on NIH/3T3-moFAP cl.34 cells
Protocol: as §2, §3

murine ICOS [6] = molecular target: T1, murine ICOS; experiment: cell-based or functional assay
murine FAP (mFAP) [7] = molecular target: T2, murine FAP (mFAP); experiment: flow cytometry on NIH/3T3-moFAP cells stably overexpressing murine FAP, PE secondary, axis % Binding to murine FAP
Protocol: as §2, §3

[8] = molecular target: T3, dimeric murine ICOS antigen Fc(kih) fusion molecule (murine, biotinylated at the C-terminal Avi tag (BirA co-expression)); experiment: SPR, ProteOn XPR36, 25 C, one-shot kinetics, Fab dilution series over murine ICOS protein, 1:1 Langmuir
T3 construct: also called murine ICOS proteins; biotinylated ICOS-Fc fusion protein
Protocol: For one-shot kinetics measurements, dilution series of purified monoclonal antibody Fab fragments were injected simultaneously along separate channels 1-5. Buffer (PBST) was injected along the sixth channel to provide an “in-line” blank for referencing. Association rate constants (kₒₙ) and dissociation rate constants (koff) were calculated using a simple one-to-one Langmuir binding model in ProteOn Manager v3.1 software by simultaneously fitting the association and dissociation sensorgrams. The equilibrium dissociation constant (KD) was calculated as the ratio koff/kₒₙ (Table 18).

murine ICOS [9] = molecular target: T1, murine ICOS; experiment: binding to CHO K1 cells expressing murine ICOS
murine ICOS [10] = molecular target: T1, murine ICOS; experiment: flow cytometry on CHO cells stably overexpressing murine ICOS, PE secondary, axis % Binding to murine ICOS
Protocol: as §2, §3

Binder | EC50 (read off the curve) (murine FAP (mFAP) [1]) [nM] | EC50 (murine FAP (mFAP) [2]) [nM] | EC50 (murine ICOS [3]) [nM] | EC50 (murine ICOS [4]) [nM] | EC50 (murine FAP (mFAP) [5]) [nM] | Fold increase vs TCB only at 3 nM CEA- or FAP-ICOS, % CD69^+CD4^+ (murine ICOS [6]) [fold] | Fold increase vs TCB only at 3 nM CEA- or FAP-ICOS, % CD69^+CD8^+ (murine ICOS [6]) [fold] | Fold increase vs TCB only at 75 nM CEA- or FAP-ICOS, % CD69^+CD4^+ (murine ICOS [6]) [fold] | Fold increase vs TCB only at 75 nM CEA- or FAP-ICOS, % CD69^+CD8^+ (murine ICOS [6]) [fold] | EC50 (read off the curve) (murine FAP (mFAP) [7]) [nM] | Kd [8] [nM] | binding result (murine ICOS [9]) | EC50 (read off the curve) (murine ICOS [10]) [nM]
B1 | ~30 | 71.8 | 28.1 | – | – | – | – | – | – | – | – | – | –
B2 | – | – | – | 17.1 | 0.142 | 1.2 | 1.9 | 1.2 | 1.9 | ~0.1 | – | – | –
B3 | – | – | – | – | – | – | – | – | – | – | 293 | binds | –
B4 | – | – | – | 2.88 | 2.86 | 1.1 | 2.3 | 1.1 | 2.4 | ~3 | – | – | ~3
